Assay results: patent publication US20160215040A1 (Regeneron, published 2016)
Substitutions are numbered along the chain they refer to.

How the values were obtained:
[1] = target: T1, Ebola virus GP, Sudan strain, on VLPs (Ebola virus, Sudan strain, UniProt Q7T9D9 33-676); assay: MSD, VLPs coated
T1 construct: also called Sudan NC_006432
T1 sequence: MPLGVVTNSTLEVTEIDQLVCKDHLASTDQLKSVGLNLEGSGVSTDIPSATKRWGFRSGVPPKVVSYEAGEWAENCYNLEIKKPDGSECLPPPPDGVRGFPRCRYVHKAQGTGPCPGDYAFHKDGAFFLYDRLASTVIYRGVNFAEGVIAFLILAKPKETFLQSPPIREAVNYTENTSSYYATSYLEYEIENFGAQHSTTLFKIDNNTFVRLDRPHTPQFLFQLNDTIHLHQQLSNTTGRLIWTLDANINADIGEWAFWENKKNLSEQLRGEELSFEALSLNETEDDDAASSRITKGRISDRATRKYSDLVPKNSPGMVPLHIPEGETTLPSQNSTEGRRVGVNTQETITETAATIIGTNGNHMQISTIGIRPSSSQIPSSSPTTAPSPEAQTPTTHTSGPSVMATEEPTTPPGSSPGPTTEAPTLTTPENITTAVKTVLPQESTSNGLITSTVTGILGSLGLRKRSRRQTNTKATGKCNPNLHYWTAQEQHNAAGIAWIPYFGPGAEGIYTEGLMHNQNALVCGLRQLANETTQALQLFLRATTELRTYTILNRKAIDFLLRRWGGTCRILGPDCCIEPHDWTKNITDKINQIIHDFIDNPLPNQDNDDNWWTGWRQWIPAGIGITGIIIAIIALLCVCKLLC

[2] = target: T2, Ebola virus GP, Cote d'Ivoire strain, on VLPs (Ebola virus, Cote d'Ivoire strain, UniProt Q66810 33-676); assay: MSD, VLPs coated
T2 construct: also called Cote d'Ivoire FJ217162; Ivory Coast
T2 sequence: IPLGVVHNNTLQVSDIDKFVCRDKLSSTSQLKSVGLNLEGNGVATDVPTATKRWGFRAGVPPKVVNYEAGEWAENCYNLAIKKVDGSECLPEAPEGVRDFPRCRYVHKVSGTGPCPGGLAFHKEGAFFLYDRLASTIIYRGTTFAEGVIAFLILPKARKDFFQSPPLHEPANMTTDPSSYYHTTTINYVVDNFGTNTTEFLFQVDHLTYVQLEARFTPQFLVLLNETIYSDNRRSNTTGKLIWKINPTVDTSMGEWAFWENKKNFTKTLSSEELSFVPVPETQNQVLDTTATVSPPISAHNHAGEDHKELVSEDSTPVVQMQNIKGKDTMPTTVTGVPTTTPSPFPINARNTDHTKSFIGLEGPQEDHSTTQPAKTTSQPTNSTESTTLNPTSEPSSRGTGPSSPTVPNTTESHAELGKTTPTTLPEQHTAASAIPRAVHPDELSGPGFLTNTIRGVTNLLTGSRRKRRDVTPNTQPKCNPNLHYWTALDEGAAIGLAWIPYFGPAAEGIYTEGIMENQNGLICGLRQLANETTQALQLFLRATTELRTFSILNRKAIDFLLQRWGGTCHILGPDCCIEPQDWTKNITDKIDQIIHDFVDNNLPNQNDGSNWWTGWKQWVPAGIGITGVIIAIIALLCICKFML

[3] = target: T3, Ebola virus GP with a C-terminal polyhistidine tag (Sino Biologicals, Catalog #40442-V08B1) (Ebola virus, UniProt P87666 33-650); assay: SPR 25C, mAb captured
T3 construct: also called EbolaGP.his; Ebola virus GP.his

[4] = target: T3, Ebola virus GP with a C-terminal …; assay: SPR 37C, mAb captured
[5] = target: T4, hCNTFR.mmh (ciliary neurotrophic factor receptor.mmh) (human (printed as hCNTFR), UniProt P26992 23-342); assay: BLI, mAb captured, 25C
T4 construct: also called negative control protein; not shown: mmh (myc-myc-hexahistidine) tag
T4 sequence: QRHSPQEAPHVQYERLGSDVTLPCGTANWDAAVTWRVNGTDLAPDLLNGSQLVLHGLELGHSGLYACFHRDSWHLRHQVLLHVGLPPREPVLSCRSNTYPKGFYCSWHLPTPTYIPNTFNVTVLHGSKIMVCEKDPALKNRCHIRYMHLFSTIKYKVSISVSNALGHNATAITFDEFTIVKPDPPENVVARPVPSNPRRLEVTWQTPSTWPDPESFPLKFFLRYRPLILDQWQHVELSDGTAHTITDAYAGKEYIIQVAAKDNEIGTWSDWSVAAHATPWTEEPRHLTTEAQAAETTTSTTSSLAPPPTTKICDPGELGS

[6] = target: T3, Ebola virus GP with a C-terminal …; assay: SPR 37C, mAb captured, pH chase
[7] = target: Ebola virus GP, Zaire 2014 strain, on VLPs (pseudoparticles) (Ebola virus, Zaire.2014 strain); assay: cell-based or functional assay

B1: H1H17193P (antibody, V domains shown)
VH: QVQLVESGGGVVQPGRSLRLSCAASGFTFSSYGIHWVRQAPGKWLEWVAFIWFDGSNKYYADSVKGRFTISRDDSKNTLYLQMNSLRAEDTAVYYCARDGEIFGVLISSDAFDIWGQGTMVTVSS
VL: DIQMTQSPSSLSASVGDRVTITCRASRGIRNDLGWFQQKPGKAPKRLIYVASNLQSGVPSRFSGSGSGTEFTLTISSLQPEDFATYYCLQHNSYPITFGQGTRLEIK
binding result [1]: no binding | binding result [2]: no binding | Kd [3]: 23.6 nM | koff [3]: 0.000108 s⁻¹ | kon [3]: 4580 M⁻¹ s⁻¹ | t½ [3]: 107 min | Kd [4]: 31.8 nM | koff [4]: 0.000503 s⁻¹ | kon [4]: 15800 M⁻¹ s⁻¹ | t½ [4]: 22.9 min | binding result [5]: no binding (tested: below 0.10 nm at 300 nM) | t½ ratio pH 7.4/pH 5.0 [6]: 0.8 | t½ ratio pH 7.4/pH 6.0 [6]: 1.1

B2: H1H17199P (antibody, V domains shown)
VH: EVQLVESGGGLVQPGGSLRLSCAASGFTFSDHYMVWVRQAPGKGLEWVGRTRNKANSYSTEYAASVKGRFTISRDDSKKSLYLQMNSLKTEDTAVYYCARGGETLWFGESNYGMDVWGQGTTVTVSS
VL: EIVLTQSPDTLSLSPGERATLSCRASQSVSSTYLAWYQQKPGQAPSLLIYGASSRATGIPDRFSGSGSGTDFTLTISRLEPEDFAVYYCQQYGRSPLTFGGGTKVEIK
binding result [1]: no binding | binding result [2]: no binding | Kd [3]: 18.9 nM | koff [3]: 0.000236 s⁻¹ | kon [3]: 12500 M⁻¹ s⁻¹ | t½ [3]: 49 min | Kd [4]: 42.2 nM | koff [4]: 0.00128 s⁻¹ | kon [4]: 30400 M⁻¹ s⁻¹ | t½ [4]: 9 min | binding result [5]: no binding (tested: below 0.10 nm at 300 nM) | t½ ratio pH 7.4/pH 5.0 [6]: 0.1 | t½ ratio pH 7.4/pH 6.0 [6]: 0.4

B3: H2aM17358N (antibody, V domains shown)
VH: EVQLVESGGGLVQPGGSLRLSCAASGFTFSTYEMNWVRQAPGKGLEWVSYSSSSGRTIYYADSVKGRFTISRDNAKNSLFLQMNSLRAEDTAVYYCARPSSIETLLRNQYHYGVDVWGQGTTVTVSS
VL: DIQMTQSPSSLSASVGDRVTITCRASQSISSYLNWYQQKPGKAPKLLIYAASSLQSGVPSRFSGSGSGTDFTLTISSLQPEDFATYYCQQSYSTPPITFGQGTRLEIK
notes: also called HCAF12C05-14
Kd [3]: 623 nM | koff [3]: 0.000201 s⁻¹ | kon [3]: 322 M⁻¹ s⁻¹ | t½ [3]: 57.5 min | Kd [4]: 52.8 nM | koff [4]: 0.000567 s⁻¹ | kon [4]: 10700 M⁻¹ s⁻¹ | t½ [4]: 20.4 min | Zaire 2014 VLP neutralization IC50 [7]: 4.68 nM | t½ ratio pH 7.4/pH 5.0 [6]: 0.4 | t½ ratio pH 7.4/pH 6.0 [6]: 0.7

B4: H2aM17360N (antibody, V domains shown)
VH: B3 VH with T31S, S51I, R56S, I58K, F80Y, E103P, T104A, V114M
VL: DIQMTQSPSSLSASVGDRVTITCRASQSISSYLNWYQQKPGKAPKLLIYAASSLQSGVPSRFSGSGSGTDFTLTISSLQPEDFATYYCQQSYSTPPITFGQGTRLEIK
notes: also called HCAF12G09-07
Kd [3]: 0.463 nM | koff [3]: 1.06e-05 s⁻¹ | kon [3]: 23000 M⁻¹ s⁻¹ | t½ [3]: 1090 min | Kd [4]: 13.9 nM | koff [4]: 0.000337 s⁻¹ | kon [4]: 24300 M⁻¹ s⁻¹ | t½ [4]: 34.3 min | Zaire 2014 VLP neutralization IC50 [7]: 3.75 nM | t½ ratio pH 7.4/pH 5.0 [6]: 0.5 | t½ ratio pH 7.4/pH 6.0 [6]: 0.2

B5: H1H17203P (antibody, V domains shown)
VH: QVQLVESGGGVVQPGRSLRLSCAASGFTFNNYGMHWVRQAPGMGLEWVAVIWHDGSDKYYADSVKGRFTISRDNSKNTLYLQMNSLRAEDTAVYYCARNWNLFDYWGQGTLVTVSS
VL: DIQMTQSPSSLSASVGDRITITCRASQSISTYLHWYQQKPGKAPKLLIYAASTLQSGVPSRFSGSGSGTDFTLTISSLQPEDFATYYCQQSFSTPPINFGQGTKLEIK
binding result [1]: no binding | binding result [2]: no binding | Kd [3]: 6.04 nM | koff [3]: 0.000168 s⁻¹ | kon [3]: 27800 M⁻¹ s⁻¹ | t½ [3]: 68.7 min | Kd [4]: 30.9 nM | koff [4]: 0.00119 s⁻¹ | kon [4]: 38500 M⁻¹ s⁻¹ | t½ [4]: 9.7 min | binding result [5]: no binding (tested: below 0.10 nm at 300 nM) | t½ ratio pH 7.4/pH 5.0 [6]: 0.1 | t½ ratio pH 7.4/pH 6.0 [6]: 0.2

B6: H1M17354N (antibody, V domains shown)
VH: QVQLVQSGAEVKKPGASVKVSCKASGYTFTSYYMHWVRQAPGQGLEWLGIINPSGGSTSYAQKFQGRVTMTRDTSTSTVYMELSSLRSEDTAVYYCARETGEAGEVFNYWGQGTQVTVSS
VL: B5 VL with I19V, S28I, T31R, H34N, Q38H, L46V, F92Y, N98T, K104R
notes: also called HCAF05C08-22
binding result [1]: no binding | binding result [2]: no binding | Kd [3]: 63.9 nM | koff [3]: 0.00316 s⁻¹ | kon [3]: 49400 M⁻¹ s⁻¹ | t½ [3]: 3.7 min | Kd [4]: 113 nM | koff [4]: 0.00573 s⁻¹ | kon [4]: 50800 M⁻¹ s⁻¹ | t½ [4]: 2 min | binding result [5]: no binding (tested: below 0.10 nm at 300 nM) | t½ ratio pH 7.4/pH 5.0 [6]: 1.3 | t½ ratio pH 7.4/pH 6.0 [6]: 1.3

B7: H1H17139P (antibody, V domains shown)
VH: EVQLVESGGGLVQPGGSLRLSCAASGFTFSSYDMHWVRQATGKGLEWVSAIGTAGDTYYPGSVKGRFTISRENAKNSLYLQMNSLRAGDTAVYYCARTWFGELYFDYWGQGTLVTVSS
VL: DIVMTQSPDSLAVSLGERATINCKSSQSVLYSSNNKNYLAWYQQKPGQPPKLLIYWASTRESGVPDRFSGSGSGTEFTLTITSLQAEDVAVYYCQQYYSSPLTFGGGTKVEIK
binding result [1]: no binding | binding result [2]: no binding | Kd [3]: 7.13 nM | koff [3]: 0.000163 s⁻¹ | kon [3]: 22900 M⁻¹ s⁻¹ | t½ [3]: 70.8 min | Kd [4]: 20.6 nM | koff [4]: 0.000512 s⁻¹ | kon [4]: 24800 M⁻¹ s⁻¹ | t½ [4]: 22.5 min | binding result [5]: no binding (tested: below 0.10 nm at 300 nM) | t½ ratio pH 7.4/pH 5.0 [6]: 0.2 | t½ ratio pH 7.4/pH 6.0 [6]: 0.2

B8: H1H17196P (antibody, V domains shown)
VH: B7 VH with S30R, A40G, T41S, P60L, T98A, E102D, L103V, Y104F, F105L
VL: EIVMTQSPATLSVSPGERATLSCRASQSVSSNLAWYQQKPGQAPRLLIYGASTRATGIPARFSGSGSGTEFTLTISSLQSEDFAGYYCQQYNNRLTFGGGTKVEIK
binding result [1]: no binding | binding result [2]: no binding | Kd [3]: ≤ 0.391 nM | koff [3]: ≤ 1e-05 s⁻¹ | kon [3]: 25600 M⁻¹ s⁻¹ | t½ [3]: ≥ 1160 min | Kd [4]: 0.317 nM | koff [4]: ≤ 1e-05 s⁻¹ | kon [4]: 31600 M⁻¹ s⁻¹ | t½ [4]: ≥ 1160 min | binding result [5]: no binding (tested: below 0.10 nm at 300 nM) | t½ ratio pH 7.4/pH 5.0 [6]: 1 | t½ ratio pH 7.4/pH 6.0 [6]: 1
